41 sequences from the nanobody polyreactivity screen of Harvey et al. (2022) can be followed below.

The nature of the data set: yeast display, Sf9 membrane polyspecificity reagent, FACS + sequencing; frameworks hold sequencing errors. An outline of the steps:
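Using colony PCR, genes from sorted yeast display clones were amplified, then sequenced on MiSeq at 2 × 250 and filtered by CDR length. The clones had been stained with 10% biotinylated, detergent-solubilized Sf9 membrane reagent for 1 hour at 4 °C and sorted by FACS into low and high (top ~1%) gates on anti-HA and streptavidin fluorescence. Polyreactivity labels come from the gate of origin.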
For “QVQLVESGGGLVQAGGSLRLSCAASGRIFDQNAMGWYRQAPGKERELVAAISSSGGRTYYADSVKGRFTISRDNAKNTVYLQMNSLKPEDTAVYYCAARYRFQRGGYYYWGQGTQVTVSS”, the “polyreactivity (PSR sort gate)” value is recorded as “high polyreactivity”.
As for “QVQLVESGGGLVQAGGSLRLSCAASGRIFDRNAMGWYRPSPGTERELLAAIDDSGGDTSYADSVKGRFTISRDNAKNTVYLQMNSLKPEDTAVYYCNAGYADFVTYPRYYYWGQGTQVTVSS”, the entry is “low polyreactivity”; as for “QVQLVESGGGLVQAGGSLRLSCAASGRIFDRNAMGWYRQAPGKERELVAAIDDSGGDTSYADSVKGRFTISRDTAKNTVYLQMNSLKPEDTAVYYCAAKRQYYQTGSQRSYPYDYWGQGTQVTVSS”, “low polyreactivity”; as for “QVQLVESGGGLVQAGGSLRLSCAASGRIFDRNAMGWYRQAPGKERELVAAIRRGGSTNYADSVKGRFTISRDNAKNTVYLQMNSLKPEDTAVYYCNTVYSEYYIAYDYWGQGTQVTVSS”, “high polyreactivity”.
Turning to “QVQLVESGGGLVQAGGSLRLSCAASGRIFDRNAMGWYRQAPGKERELVARIDPGDDTNYADSVKGRFTISRDNAKHTVYLQMHSLKPEDTAVYYCATDPDYVLFRTAYYEYDYWGQGTQVTVSS”, the “polyreactivity (PSR sort gate)” value is “low polyreactivity”.
As for “QVQLVESGGGLVQAGGSLRLSCAASGRIFDRYAMGWYRPAPGKERELVAASTGSGGRTYYADSVKGRFTISRDNAKNTVYLQMNSLKPEDTAVYYCARAFGQRRYYYWGQGTQVTVSS”, the entry is “high polyreactivity”; as for “QVQLVESGGGLVQAGGSLRLSCAASGRIFDRYVMGWYRQAPGKERELVAAISSGGSTYYADSVKGRFTISRDNAKNTVYLQMNSLKPEDTAVYYCAADRRSKYDYWGQGTQVTVSS”, “low polyreactivity”; as for “QVQLVESGGGLVQAGGSLRLSCAASGRIFDSYAMGWYRQAPGKERELVAAISFGGDTYYADSVKGRFTISRDNAKNTVYLQMNSLKPEDTAVYYCAKDNPAALFDSWGQGTQVTVSS”, “low polyreactivity”.
As for “QVQLVESGGGLVQAGGSLRLSCAASGRIFDTYVMRWYRQAPGKERELVAAISGSGGSTYYADSVKGRFTISRDTAKNTVYLQMNSLKPEDTAVYYCAAVVLGRLLGFRGDYNYWGQGPQVTVSS”, the entry is “high polyreactivity”.
Then “QVQLVESGGGLVQAGGSLRLSCAASGRIFDVYAMGWYRQAPGKERELVAAITWSGTSTYYADSVKGRFTISRDNAKNTVYLQMNSLKPEDTAVYYCNALSYGRYLNYRGGMDYWGQGTQVTVSS”, with “high polyreactivity”; and “QVQLVESGGGLVQAGGSLRLSCAASGRIFDVYAMGWYRQAPGKERELVATISSSGGATYYADSVKGRFTISRDNAKNTVYLQMNSLKPEDTAVYYCATTYRPTFRRHYNYWGQGTQVTVSS”, with “low polyreactivity”; and “QVQLVESGGGLVQAGGSLRLSCAASGRIFDVYAMGWYRQSPGKERELVAAISWSGSSTYYADSVKGRFTISRDTAKNTVYFQMNSLKPEDTAVYYCAADYPKTYTSKFNYWGQGTQVTVSS”, with “high polyreactivity”.
As to “QVQLVESGGGLVQAGGSLRLSCAASGRIFDWYAMGWYRQAPGKERELVATISWSGGSTYYADSVKGRFTISRDNAKNTVYLQMNSLKPEDTAVYYCAADDYWRLYTWKFDYWGQGTQVTVSS”, the “polyreactivity (PSR sort gate)” value is recorded as “high polyreactivity”.
As for “QVQLVESGGGLVQAGGSLRLSCAASGRIFDYYAMGWYRQAPGKERELVAAINSGGSTYYADSVKGRFTISRDNAKNTVYLQMNSLKPEDTAVYYCAAKSFAPIVDYWGQGTQVTVSS”, the entry is “high polyreactivity”.
Then “QVQLVESGGGLVQAGGSLRLSCAASGRIFDYYAMGWYRQAPGKERELVAAITRGGSTYYADSVKGRFTISRDNAKNTVYLQLNSLNPVDTEVYYCAASIGIRFIKYDYWGQGAQVTVSS”, with “high polyreactivity”.
“QVQLVESGGGLVQAGGSLRLSCAASGRIFDYYAMGWYRQAPGKERELVAAITSSGGSTYYADSVKGRFTISRDNAKNTVYLQMNSLKPEDTAVYYCAAGRKVQSRRYGYWGQGTQVTVSS”: the “polyreactivity (PSR sort gate)” value is “high polyreactivity”.
As for “QVQLVESGGGLVQAGGSLRLSCAASGRIFDYYAMGWYRQAPGKERELVAVISGSGGTYYADSVKGRFTISRDNAKNTVYLQMNSLKPEDTAVYYCNAAVTSYPGYEYWGQGTQVTVSS”, the “polyreactivity (PSR sort gate)” value was “low polyreactivity”.
“QVQLVESGGGLVQAGGSLRLSCAASGRIFDYYAMGWYRQAPGNERELVAAINSGGSTYYADSVKGRFTISRDNAKNTVSLQMNSLKPEDTAVYYCNALRKSLRGGDYWGQGTQVTVSS”: the “polyreactivity (PSR sort gate)” value is “high polyreactivity”.
As for “QVQLVESGGGLVQAGGSLRLSCAASGRIFDYYTMGWSRQAPGKVRELVAAISSGGRTYYADSVKGRFTISRDNAKNTVYLQMNSLKPEDTAVYYCNALDTRHTYTYTGGKRFPYDHWGQGTQVTVSS”, the entry is “low polyreactivity”; as for “QVQLVESGGGLVQAGGSLRLSCAASGRIFDYYYMGWYRQAPGKERELVAAISNGGSTYYADSVKGRFTISRDNAKNTVYLQMNSLKPEDTAVYYGAAVISFSGYDYYYWGQGTQVTVSS”, “high polyreactivity”.
Then “QVQLVESGGGLVQAGGSLRLSCAASGRIFEDYAMGWYRQAAGKERELVARISSGDSTNYADSVKGRFTISRDNAKNTVYLQMNSLKPVVTAVYYCAAEGGVQEFDYWGQGTQVTVSS”, with “low polyreactivity”; and “QVQLVESGGGLVQAGGSLRLSCAASGRIFEINARGWYRQAPGKERELVAAITRSGGSTYYADSVKGRFTISRDNAKNTVYFQMNSLTPEDTAVYYCAARGRYWYSRYYSWGQGTQVTVSS”, with “high polyreactivity”.
With “QVQLVESGGGLVQAGGSLRLSCAASGRIFEPYAMGWYRQAPGKERELVAAITSGGSTDYADSVKGRFTISRDNAKNTVYLQMNSLKPEDTAVYYCAAETVWRLDYWGQGTQVTVSS”, the “polyreactivity (PSR sort gate)” value is on record as “low polyreactivity”.
With “QVQLVESGGGLVQAGGSLRLSCAASGRIFERNAMGGDRQAPGKEREFVAASSWSGGSTHYADSVKGRFTSSRDNAKNTVYVQMNSLKPEDTAVYFCAARRRKAGRPSDRYYYWGQGTQVTVSS”, the “polyreactivity (PSR sort gate)” value is on record as “high polyreactivity”.
Then “QVQLVESGGGLVQAGGSLRLSCAASGRIFERYAMGWYRQAPGKERELVAGISISGGGTYYADSVKGRFTISRDNAKNTVYLEMNSLKPEDTAVYYCAATFPREDYGYWGQGTQVTVSS”, with “low polyreactivity”.
As for “QVQLVESGGGLVQAGGSLRLSCAASGRIFERYAMGWYRQAPGKERELVAGISISGGGTYYADSVKGRFTISRDNAKNTVYLQMNSLKPEDTAVYYCAATFPREEYGYWGQGTQVTVSS”, the entry is “low polyreactivity”.
As for “QVQLVESGGGLVQAGGSLRLSCAASGRIFESYAMGWYRQAPGKERELVAAISSGGGTTYYADSVKGRFTISRDNAKNTVYLQMNSLKPEDTAVYYCAAGPWFYYWGQGTQVTVSS”, the entry is “low polyreactivity”; as for “QVQLVESGGGLVQAGGSLRLSCAASGRIFEWYAMGWYRQAPGKEREFVARITIGGRTYYADSVKGRFTISRDNAKNTVYFQMNSVKREDTAVYYCNAPYAWARPYIVSSTYDYWGQGTQVTVSS”, “high polyreactivity”.
“QVQLVESGGGLVQAGGSLRLSCAASGRIFFHNAMGWYRQARGKERELVAAISYSGGSTYYADSVKGRFTIARDNAKNTVYLQMNSLKPEDTAVYYCNRYGNSYYFPPGPLYNYWGQGTQVTVSS”: the “polyreactivity (PSR sort gate)” value was “high polyreactivity”.
Then “QVQLVESGGGLVQAGGSLRLSCAASGRIFFIYAMGWYRQAPGKERELVAAITWRGGRTYYADSVKGRFTISRDNAKNTVYLQMNSLKPEDTAVYYCAADYRDSYLFYYWGQGTQVTVSS”, with “high polyreactivity”; and “QVQLVESGGGLVQAGGSLRLSCAASGRIFFIYVMGWYRQAPGKERELVAGITRGGSTNYADSVKGRFTISRDNAKNTVYLQMNSLKPEDTAVYYCAAAVLSYRHAHAGYYYGKGDYWGQGTQVTVSS”, with “high polyreactivity”; and “QVQLVESGGGLVQAGGSLRLSCAASGRIFFNAMGWYRQAPGKEREFVAAIRTSGGTTYYADSVKGRFTISRDNAKNTVYLQMNSLKPEDTAVYYCAAWRWYYPVRNRAQYVRGDYWGQGTQVTVSS”, with “high polyreactivity”.
As for “QVQLVESGGGLVQAGGSLRLSCAASGRIFFPNAMGWYRQAPGKERELVAAITSGSSTYYADSVKGRFTISRDNAKNTVYLQMNSLKPEDTAVYYCAARGRRGEAYRSVYYWGQGTQVTVSS”, the entry is “high polyreactivity”.
As for “QVQLVESGGGLVQAGGSLRLSCAASGRIFFRNAMGWYRQAPGKERELVAVINTGGSTNYADSVKGRFTISRDNAKNTVFLQMNSLKPEDTAVYYCAVDRASRRTYNQYGFWGQGTQVTVSS”, the entry is “high polyreactivity”.
“QVQLVESGGGLVQAGGSLRLSCAASGRIFFRNVMGWYRQAPGKERELVATITSGGRTYYADSVKGRFTISRDNAKNTVYLQMNSLKPEDTAVYYCAAKRYLHRREYWGQGTQVTVSS”: the “polyreactivity (PSR sort gate)” value is listed as “high polyreactivity”.
As for “QVQLVESGGGLVQAGGSLRLSCAASGRIFFTKAMGWYRQAPGKERELVAAISKSGARTYYADSVKGRFTISRDNAKNTVYLQMNSLKPEDTAVYYCAADVSVSGYYYWGQGTQVTVSS”, the entry is “high polyreactivity”.
Consider “QVQLVESGGGLVQAGGSLRLSCAASGRIFFTNAMGWYRQAPGKEREFVAGISFSGDGRTYYADSVKGRFTISRDNAKNTVYLQMNSLKPEDTAVYYCAAPHRSRTHELDYWGQGTQVTVSS”, for which the “polyreactivity (PSR sort gate)” value was “low polyreactivity”.
Then “QVQLVESGGGLVQAGGSLRLSCAASGRIFFTNAMGWYRQAPGKERELVATISSSDGSTYYADSVTGRFTISRDNAKNTVYLQMNSLKPEDTAVYYCAARYRSTFYNTYDRVYWGQGTQVTVSS”, with “high polyreactivity”; and “QVQLVESGGGLVQAGGSLRLSCAASGRIFFTYAMGWYRQAPGKERELVASITGSGGSTYYADSVKGRFTISRDNAKNTVYLQMNSLKPEDTAVYYCAAALFRRQLYRKFYYWGQGTQVTVSS”, with “low polyreactivity”.
Then “QVQLVESGGGLVQAGGSLRLSCAASGRIFFVNTMGWYRQAPGNERELVATLSWSGGSTYYADSVKGRFTISRDNAKNTVYLQMNSLKPEDTAVYYCAAVGYTTYRRYDYWGQGTQVTVSS”, with “low polyreactivity”; and “QVQLVESGGGLVQAGGSLRLSCAASGRIFFWYARGWYRQAPGKEWELVAGITSGGSTNYADSVKGRFTISRDNAKNTVYLQMNSLKPEDTAVYYCAKRSYRTHTYDYWGQGTQVTVSS”, with “low polyreactivity”.
